Experiments:
[1] = molecular target: T1, human ROR1 expressed on the surface of cancer cells (human, UniProt Q01973 30-937); test: cell-based or functional assay
[2] = molecular target: T2, His-tagged soluble human ROR1 (shROR1-His) (human, UniProt Q01973 30-406); test: SPR (Biacore), diabody captured via anti-E/K-coil, shROR1-His as analyte
T2 construct: also called ROR1 protein; immobilized ROR1; not shown: His-Tag
Description: The binding kinetics of DART-1 to DART-6, DART-10 to DART-17, DART-20 to DART-33 was investigated using Biacore analysis in which ROR1 protein was passed over immobilized diabodies. Briefly, each diabody construct was captured on immobilized anti-E/K-coil surface and was incubated with shROR1-His at 25 and 100 nM, and the kinetics of binding were determined via Biacore analysis.

[3] = molecular target: T2, His-tagged soluble human ROR1 …; test: sandwich ELISA: plate coated with shROR1-His, serial dilutions of diabody, bound diabody detected with biotinylated CD3 and streptavidin-HRP; abs @450nm
Description: (§1) The ability of the bispecific ROR1×CD3 two and three chain diabodies DART-1 and DART-A to bind both ROR1 and CD3 was examined by a sandwich ELISA. Briefly, microtiter plates were coated with shROR1-His, the plates were washed and incubated with three-fold serial dilutions of DART-1 or DART-A. The amount of diabody binding to the immobilized ROR1 was assessed using a biotinylated CD3 detected with Streptavidin-HRP. All samples were analyzed on a plate reader and binding curves generated. […] The cells were washed twice incubated with biotin-conjugated mouse anti-EK-coil antibody that recognizes the E-coil/K-coil (EK) heterodimerization region (100 μL of 1 μg/mL mixed with 1:500 diluted streptavidin-phycoerythrin) for 45 min. The cells were then washed and resuspended with FACS buffer, and analyzed with a BD FCS Canto II flow cytometer using FlowJo v10 software.

[4] = molecular target: T2, His-tagged soluble human ROR1 …; test: SPR (BIACORE), trivalent binding molecule 6.25 to 100 nM passed over immobilized shROR1-His
Description: The binding kinetics of each of the ROR1×CD3×CD8 trivalent binding molecules to ROR1 was investigated using BIACORE® analysis in which each trivalent binding molecule (6.25 to 100 nM) was passed over immobilized shROR1-His essentially as described above.

[5] = molecular target: T1, human ROR1 expressed on the surface of …; test: cell-based or functional assay; remark: listed apart in the source
[6] = molecular target: T2, His-tagged soluble human ROR1 …; test: SPR (Biacore), shROR1-His captured on anti-PentaHis surface, diabody 6.25-100 nM as analyte
Description: The binding affinity of DART-1, DART-A, DART-B, and DART-C was investigated using Biacore analysis in which each diabody construct was passed over immobilized ROR1. Briefly, shROR1-His was captured on immobilized anti-PentaHis surface and was incubated with DART-1, DART-A, DART-B or DART-C at 6.25-100 nM, and the kinetics of binding was determined via Biacore analysis.

[7] = molecular target: T2, His-tagged soluble human ROR1 …; test: sandwich ELISA: plate coated with shROR1-His, serial dilutions of diabody, bound diabody detected with biotinylated CD3 and streptavidin-HRP; y axis 'Mean Value'
Description: as §1

T1 sequence (Q01973 30-937): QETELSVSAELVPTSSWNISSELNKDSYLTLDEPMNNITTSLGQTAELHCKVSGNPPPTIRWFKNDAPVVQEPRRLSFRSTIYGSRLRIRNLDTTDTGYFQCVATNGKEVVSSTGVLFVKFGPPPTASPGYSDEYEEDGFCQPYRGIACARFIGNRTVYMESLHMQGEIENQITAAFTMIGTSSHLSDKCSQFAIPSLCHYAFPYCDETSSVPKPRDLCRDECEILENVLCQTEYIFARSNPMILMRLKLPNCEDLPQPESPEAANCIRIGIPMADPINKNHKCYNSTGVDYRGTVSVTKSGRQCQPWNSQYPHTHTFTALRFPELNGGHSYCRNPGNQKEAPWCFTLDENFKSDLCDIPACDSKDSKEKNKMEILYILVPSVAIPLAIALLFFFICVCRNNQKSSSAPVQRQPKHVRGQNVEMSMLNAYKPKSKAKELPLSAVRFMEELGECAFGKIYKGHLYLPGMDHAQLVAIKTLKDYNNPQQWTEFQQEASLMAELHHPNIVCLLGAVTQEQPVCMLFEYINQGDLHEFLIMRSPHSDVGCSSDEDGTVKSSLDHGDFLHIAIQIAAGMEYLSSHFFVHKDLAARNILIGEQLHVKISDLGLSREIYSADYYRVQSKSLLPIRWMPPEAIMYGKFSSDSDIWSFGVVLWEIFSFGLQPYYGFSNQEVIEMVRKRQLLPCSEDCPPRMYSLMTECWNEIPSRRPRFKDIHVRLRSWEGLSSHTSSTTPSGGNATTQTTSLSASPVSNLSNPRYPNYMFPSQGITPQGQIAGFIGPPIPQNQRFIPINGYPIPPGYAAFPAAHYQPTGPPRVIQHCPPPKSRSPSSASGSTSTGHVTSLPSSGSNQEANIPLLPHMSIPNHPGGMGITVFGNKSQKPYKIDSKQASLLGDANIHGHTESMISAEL
T2 sequence (Q01973 30-406): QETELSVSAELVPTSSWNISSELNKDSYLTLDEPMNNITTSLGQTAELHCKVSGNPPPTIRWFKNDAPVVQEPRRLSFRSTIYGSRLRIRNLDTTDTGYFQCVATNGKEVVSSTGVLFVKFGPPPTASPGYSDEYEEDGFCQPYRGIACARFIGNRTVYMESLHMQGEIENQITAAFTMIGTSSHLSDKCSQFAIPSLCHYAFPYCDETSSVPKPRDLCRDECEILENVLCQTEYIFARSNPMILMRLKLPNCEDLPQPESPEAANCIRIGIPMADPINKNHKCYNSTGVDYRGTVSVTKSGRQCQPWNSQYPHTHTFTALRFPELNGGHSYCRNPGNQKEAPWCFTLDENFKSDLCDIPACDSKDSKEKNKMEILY

B1: DART-1 (bispecific antibody)
chain 1: QLVLTQSPSASASLGSSVKLTCTLSSGHKTDTIDWYQQQPGKAPRYLMKLEGSGSYNKGSGVPDRFGSGSSSGADRYLTISSLQSEDEADYYCGTDYPGNYLFGGGTQLTVLGGGGSGGGGEVQLVESGGGLVQPGGSLRLSCAASGFTFSTYAMNWVRQAPGKGLEWVGRIRSKYNNYATYYADSVKGRFTISRDDSKNSLYLQMNSLKTEDTAVYYCVRHGNFGNSYVSWFAYWGQGTLVTVSSGGCGGGKVAALKEKVAALKEKVAALKEKVAALKE
chain 2: QAVVTQEPSLTVSPGGTVTLTCRSSTGAVTTSNYANWVQQKPGQAPRGLIGGTNKRAPWTPARFSGSLLGGKAALTITGAQAEDEADYYCALWYSNLWVFGGGTKLTVLGGGGSGGGGQEQLVESGGGLVQPGGSLRLSCAASGFTFSDYYMSWVRQAPGKGLEWVATIYPSSGKTYYADSVKGRFTISSDNAKNSLYLQMNSLRAEDTAVYYCARDSYADDAALFDIWGQGTTVTVSSGGCGGGEVAALEKEVAALEKEVAALEKEVAALEK
notes: VL: parental; VH: parental; also called ROR1×CD3 bispecific two chain diabody with parental anti-ROR1-VL and anti-ROR1-VH
MR(%) (maximum response), redirected cell killing of HBL-2 cells (LDH release) [1]: 28.5% | MR(%) (maximum response), redirected cell killing of JIMT-1 cells (LDH release) [1]: 42.4% | MR(%) (maximum response), redirected cell killing of Jeko-1 cells (LDH release) [1]: 37.4% | Kd [2]: 4 nM | EC50 (read off the curve) [3]: ~2 nM

B2: TRIDENT-A (other)
chain 1: QLVLTQSPSASASLGSSVKLTCTLSSGHKTDTIDWYQQQPGKAPRYLMKLEGSGSYNKGSGVPDRFGSGSSSGADRYLTISSLQSEDEADYYCGTDYPGNYLFGGGTQLTVLGGGGSGGGGEVQLVESGGGLVQPGGSLRLSCAASGFTFSTYAMNWVRQAPGKGLEWVGRIRSKYNNYATYYADSVKGRFTISRDDSKNSLYLQMNSLKTEDTAVYYCVRHGNFGNSYVSWFAYWGQGTLVTVSSASTKGEVAACEKEVAALEKEVAALEKEVAALEKGGGDKTHTCPPCPAPEAAGGPSVFLFPPKPKDTLMISRTPEVTCVVVDVSHEDPEVKFNWYVDGVEVHNAKTKPREEQYNSTYRVVSVLTVLHQDWLNGKEYKCKVSNKALPAPIEKTISKAKGQPREPQVYTLPPSREEMTKNQVSLWCLVKGFYPSDIAVEWESNGQPENNYKTTPPVLDSDGSFFLYSKLTVDKSRWQQGNVFSCSVMHEALHNHYTQKSLSLSPGK
chain 2: QAVVTQEPSLTVSPGGTVTLTCRSSTGAVTTSNYANWVQQKPGQAPRGLIGGTNKRAPWTPARFSGSLLGGKAALTITGAQAEDEADYYCALWYSNLWVFGGGTKLTVLGGGGSGGGGQEQLVESGGGLVQPGGSLRLSCAASGFTFSDYYMSWVRQAPGKGLEWVATIYPSSGKTYYADSVKGRFTISSDNAKNSLYLQMNSLRAEDTAVYYCARDSYADDAALFDIWGQGTTVTVSSASTKGKVAACKEKVAALKEKVAALKEKVAALKE
chain 3: DIQMTQSPSSLSASVGDRVTITCKGSQDINNYLAWYQQKPGKAPKLLIYNTDILHTGVPSRFSGSGSGTDFTFTISSLQPEDIATYYCYQYNNGYTFGCGTKVEIKGGGGSGGGGSGGGGSQVQLVESGGGVVQPGRSLRLSCAASGFTFSDFGMNWVRQAPGKCLEWVALIYYDGSNKFYADSVKGRFTISRDNSKNTLYLQMNSLRAEDTAVYYCAKPHYDGYYHFFDSWGQGTLVTVSSVEPKSADKTHTCPPCPAPEAAGGPSVFLFPPKPKDTLMISRTPEVTCVVVDVSHEDPEVKFNWYVDGVEVHNAKTKPREEQYNSTYRVVSVLTVLHQDWLNGKEYKCKVSNKALPAPIEKTISKAKGQPREPQVYTLPPSREEMTKNQVSLSCAVKGFYPSDIAVEWESNGQPENNYKTTPPVLDSDGSFFLVSKLTVDKSRWQQGNVFSCSVMHEALHNRYTQKSLSLSPGK
notes: parental anti-ROR1-VL/VH, CD3 mAb 1 (D65G), TRX2 (anti-CD8) as scFv-Fc third chain
Kd [4]: 1.3 nM | EC50 nM, redirected cell killing of Calu-3 cells by pan T-cells (LDH release) [5]: 0.0027 nM | EC50 nM, redirected cell killing of JIMT-1 cells by pan T-cells (LDH release) [5]: 0.0022 nM | EC50 nM, redirected cell killing of NCI-H1975 cells by pan T-cells (LDH release) [5]: 0.0039 nM

B3: TRIDENT-B (other)
chain 1: QLVLTQSPSASASLGSSVKLTCTLSSGHKTDTIDWYQQQPGKAPRYLMKLEGSGSYNKGSGVPDRFGSGSSSGADRYLTISSLQSEDEADYYCGTDYPGNYLFGGGTQLTVLGGGGSGGGGEVQLVESGGGLVQPGGSLRLSCAASGFTFSTYAMNWVRQAPGKGLEWVGRIRSKYNNYATYYADSVKGRFTISRDDSKNSLYLQMNSLKTEDTAVYYCVRHGNFGNSYVSWFAYWGQGTLVTVSSASTKGEVAACEKEVAALEKEVAALEKEVAALEKGGGDKTHTCPPCPAPEAAGGPSVFLFPPKPKDTLMISRTPEVTCVVVDVSHEDPEVKFNWYVDGVEVHNAKTKPREEQYNSTYRVVSVLTVLHQDWLNGKEYKCKVSNKALPAPIEKTISKAKGQPREPQVYTLPPSREEMTKNQVSLWCLVKGFYPSDIAVEWESNGQPENNYKTTPPVLDSDGSFFLYSKLTVDKSRWQQGNVFSCSVMHEALHNHYTQKSLSLSPGK
chain 2: QAVVTQEPSLTVSPGGTVTLTCRSSTGAVTTSNYANWVQQKPGQAPRGLIGGTNKRAPWTPARFSGSLLGGKAALTITGAQAEDEADYYCALWYSNLWVFGGGTKLTVLGGGGSGGGGQEQLVESGGGLVQPGGSLRLSCAASGFTFSDYYMSWVRQAPGKGLEWVATIYPSSGKTYYADSVKGRFTISSDNAKNSLYLQMNSLRAEDTAVYYCARDSYADDAALFDIWGQGTTVTVSSASTKGKVAACKEKVAALKEKVAALKEKVAALKE
heavy: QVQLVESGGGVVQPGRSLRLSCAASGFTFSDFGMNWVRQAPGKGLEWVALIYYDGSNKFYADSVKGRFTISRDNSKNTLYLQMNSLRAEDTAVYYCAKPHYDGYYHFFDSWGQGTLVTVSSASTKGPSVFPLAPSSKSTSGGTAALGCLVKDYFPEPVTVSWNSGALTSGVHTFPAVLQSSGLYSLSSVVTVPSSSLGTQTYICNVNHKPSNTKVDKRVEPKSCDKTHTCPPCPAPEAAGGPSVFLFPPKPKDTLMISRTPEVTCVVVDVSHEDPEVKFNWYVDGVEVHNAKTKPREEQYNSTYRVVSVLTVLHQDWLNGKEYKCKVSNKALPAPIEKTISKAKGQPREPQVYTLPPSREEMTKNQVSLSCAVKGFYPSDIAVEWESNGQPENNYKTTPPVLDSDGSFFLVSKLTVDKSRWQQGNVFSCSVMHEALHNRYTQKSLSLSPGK
light: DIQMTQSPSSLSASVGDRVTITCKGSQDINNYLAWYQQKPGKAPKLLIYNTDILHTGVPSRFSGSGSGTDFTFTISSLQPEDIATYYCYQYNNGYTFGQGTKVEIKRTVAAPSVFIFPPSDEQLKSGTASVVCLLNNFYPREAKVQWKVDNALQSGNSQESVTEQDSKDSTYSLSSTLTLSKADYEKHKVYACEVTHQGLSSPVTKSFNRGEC
notes: parental anti-ROR1-VL/VH, CD3 mAb 1 (D65G), TRX2 (anti-CD8) as Fab-type heavy and light chains
Kd [4]: 1.6 nM | EC50 nM, redirected cell killing of Calu-3 cells by pan T-cells (LDH release) [5]: 0.0044 nM | EC50 nM, redirected cell killing of JIMT-1 cells by pan T-cells (LDH release) [5]: 0.0052 nM | EC50 nM, redirected cell killing of NCI-H1975 cells by pan T-cells (LDH release) [5]: 0.0153 nM

B4: DART-B (bispecific antibody)
chain 1: QLVLTQSPSASASLGSSVKLTCTLSSGHKTDTIDWYQQQPGKAPRYLMKLEGSGSYNKGSGVPDRFSGSSSGADRYLTISSLQSEDEADYYCGTDYPGNYLFGGGTQLTVLGGGGSGGGGEVQLVESGGGLVQPGGSLRLSCAASGFTFSTYAMNWVRQAPGKGLEWVGRIRSKYNNYATYYADSVKGRFTISRDDSKNSLYLQMNSLKTEDTAVYYCVRHGNFGNSYVSWFAYWGQGTLVTVSSASTKGEVAACEKEVAALEKEVAALEKEVAALEKGGGDKTHTCPPCPAPEAAGGPSVFLFPPKPKDTLMISRTPEVTCVVVDVSHEDPEVKFNWYVDGVEVHNAKTKPREEQYNSTYRVVSVLTVLHQDWLNGKEYKCKVSNKALPAPIEKTISKAKGQPREPQVYTLPPSREEMTKNQVSLWCLVKGFYPSDIAVEWESNGQPENNYKTTPPVLDSDGSFFLYSKLTVDKSRWQQGNVFSCSVMHEALHNHYTQKSLSLSPGK
chain 2: QAVVTQEPSLTVSPGGTVTLTCRSSTGAVTTSNYANWVQQKPGQAPRGLIGGTNKRAPWTPARFSGSLLGGKAALTITGAQAEDEADYYCALWYSNLWVFGGGTKLTVLGGGGSGGGGQEQLVESGGGLVQPGGSLRLSCAASGFTFSDYYMSWVRQAPGKGLEWVATIYPSSGKTYYADSVKGRFTISSDNAKNSLYLQMNSLRAEDTAVYYCARDSYADDAALFDIWGQGTTVTVSSASTKGKVAACKEKVAALKEKVAALKEKVAALKE
chain 3: not shown
notes: Three chain Fc Region-containing ROR1×CD3 diabody; VH: parental
Kd [6]: 0.65 nM

B5: DART-D (bispecific antibody)
chain 1: QLVLTQSPSASASLGSSVKLTCTLSSGHKTDTIDWYQQQPGKAPRYLMKLEGSGSYNKGSGVPDRFSGSSSGADWYLTISSLQSEDEADYYCGTDYPGNYLFGGGTQLTVLGGGGSGGGGEVQLVESGGGLVQPGGSLRLSCAASGFTFSTYAMNWVRQAPGKGLEWVGRIRSKYNNYATYYADSVKGRFTISRDDSKNSLYLQMNSLKTEDTAVYYCVRHGNFGNSYVSWFAYWGQGTLVTVSSASTKGEVAACEKEVAALEKEVAALEKEVAALEKGGGDKTHTCPPCPAPEAAGGPSVFLFPPKPKDTLMISRTPEVTCVVVDVSHEDPEVKFNWYVDGVEVHNAKTKPREEQYNSTYRVVSVLTVLHQDWLNGKEYKCKVSNKALPAPIEKTISKAKGQPREPQVYTLPPSREEMTKNQVSLWCLVKGFYPSDIAVEWESNGQPENNYKTTPPVLDSDGSFFLYSKLTVDKSRWQQGNVFSCSVMHEALHNHYTQKSLSLSPGK
chain 2: QAVVTQEPSLTVSPGGTVTLTCRSSTGAVTTSNYANWVQQKPGQAPRGLIGGTNKRAPWTPARFSGSLLGGKAALTITGAQAEDEADYYCALWYSNLWVFGGGTKLTVLGGGGSGGGGQEQLVESGGGLVQPGGSLRLSCAASGFTFSDYYMSWIRQAPGKGLEWVATIYPSSGKTYYADSAKGRLTISSDNAKDSLYLQMNSLRAEDTAVYYCTRDSYADDAALFDIWGQGTTVTVSSASTKGKVAACKEKVAALKEKVAALKEKVAALKE
chain 3: not shown
notes: Three chain Fc Region-containing ROR1×CD3 diabody
EC50 (read off the curve) [7]: ~1 nM
